In patent US20140314744A1 (NEOTOPE BIOSCIENCES, published 2014):
Blank lines part the entries; values can stand above or below the binder they belong to.

Legend:
[1] = molecular target: T1, Recombinant human laminin-α4 (R&D systems) (human, UniProt Q16363-2 826-1816); test: SPR (Biacore T200)
T1 construct: also called laminin 4A chain; laminin A4 (α4) chain
T1 sequence (looked up): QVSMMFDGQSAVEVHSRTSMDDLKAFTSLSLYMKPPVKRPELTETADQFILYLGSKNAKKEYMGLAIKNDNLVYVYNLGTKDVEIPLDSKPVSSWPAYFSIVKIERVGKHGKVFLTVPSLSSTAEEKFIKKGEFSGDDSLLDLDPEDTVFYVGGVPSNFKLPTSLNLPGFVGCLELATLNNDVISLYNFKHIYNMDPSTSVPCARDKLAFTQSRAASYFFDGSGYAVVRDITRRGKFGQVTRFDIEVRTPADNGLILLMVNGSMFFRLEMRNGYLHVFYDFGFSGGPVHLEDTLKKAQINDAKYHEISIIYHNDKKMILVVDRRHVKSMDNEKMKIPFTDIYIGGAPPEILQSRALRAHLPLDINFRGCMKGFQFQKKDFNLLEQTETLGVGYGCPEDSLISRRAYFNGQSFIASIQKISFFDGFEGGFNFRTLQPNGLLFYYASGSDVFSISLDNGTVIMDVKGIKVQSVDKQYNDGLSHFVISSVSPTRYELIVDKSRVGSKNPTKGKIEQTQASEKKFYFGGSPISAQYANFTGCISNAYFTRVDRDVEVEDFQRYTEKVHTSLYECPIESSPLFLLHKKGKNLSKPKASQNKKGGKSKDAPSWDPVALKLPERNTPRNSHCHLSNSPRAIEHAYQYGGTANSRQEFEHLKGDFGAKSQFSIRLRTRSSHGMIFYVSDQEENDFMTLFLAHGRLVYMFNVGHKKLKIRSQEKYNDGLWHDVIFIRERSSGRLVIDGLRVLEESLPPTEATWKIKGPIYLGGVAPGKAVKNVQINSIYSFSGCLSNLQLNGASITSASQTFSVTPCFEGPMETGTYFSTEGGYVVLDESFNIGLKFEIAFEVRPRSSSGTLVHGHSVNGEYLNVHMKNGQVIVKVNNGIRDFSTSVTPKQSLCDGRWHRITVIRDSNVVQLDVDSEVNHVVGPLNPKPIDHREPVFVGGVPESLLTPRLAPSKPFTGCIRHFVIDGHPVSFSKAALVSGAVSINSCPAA

[2] = molecular target: T2, Recombinant human laminin 511 (Biolamina) (human, UniProt O15230 36-3695; P07942 22-1786; P11047 34-1609); test: SPR (Biacore T200)
T2 construct: Trimer α5β1γ1, bought; negative control

[3] = molecular target: T3, Murine MCAM domain 1 (Ig1) with human IgG Fc tag (mouse, UniProt Q8R2Y2 24-131, limits assumed); test: ForteBio Octet Red, domains on anti-human IgG Fc biosensors
T3 construct: domain: domain 1 (Ig1); also called MCAM Fc domain 1; not shown: human IgG Fc tag
T3 sequence (looked up): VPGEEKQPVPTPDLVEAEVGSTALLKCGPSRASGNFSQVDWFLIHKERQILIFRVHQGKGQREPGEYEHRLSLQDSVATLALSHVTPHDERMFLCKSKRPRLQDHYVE
Description: (§1) The following protocol was used: ForteBio Domain Mapping Protocol. ForteBio anti-human IgG Fc biosensors were used to immobilize various mouse MCAMhFc domains including full length mouse MCAMhFc protein on to biosensor surface. These sensors were dipped into either clone 15 or 17 MCAM specific antibody for detection of binding to these domains or full length protein. After loading these samples into a black 96 well plate, the Octet Red was programmed as follows: 60 seconds for baseline #1; 180 seconds for loading various domains; 60 seconds for baseline #2; 180 seconds for association of antibody to domain; and 240 seconds for dissociation of antibody from domain.

[4] = molecular target: T4, Murine MCAM domain 1 and 2 (Ig1-2A) with human IgG Fc tag (mouse, UniProt Q8R2Y2 24-244, limits assumed); test: as above
T4 construct: domain: domain 1 and 2 (Ig1-2A); also called MCAM Fc domains 1 and 2; not shown: human IgG Fc tag
T4 sequence (looked up): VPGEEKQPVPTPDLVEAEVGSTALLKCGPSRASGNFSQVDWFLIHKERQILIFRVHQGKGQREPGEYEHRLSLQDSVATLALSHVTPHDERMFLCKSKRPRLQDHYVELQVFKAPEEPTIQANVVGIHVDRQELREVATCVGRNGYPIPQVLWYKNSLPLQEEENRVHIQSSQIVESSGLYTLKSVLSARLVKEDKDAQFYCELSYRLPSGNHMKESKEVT
Description: as §1

[5] = molecular target: T5, mouse MCAM (full length, on transfected CHO cells) (mouse, UniProt Q8R2Y2 24-648); test: flow cytometry on MCAM transfected cells mixed with CFSE-labelled untransfected cells
T5 construct: whole, on cells; also called murine MCAM; mouse MCAM transfected CHO cells
T5 sequence (looked up): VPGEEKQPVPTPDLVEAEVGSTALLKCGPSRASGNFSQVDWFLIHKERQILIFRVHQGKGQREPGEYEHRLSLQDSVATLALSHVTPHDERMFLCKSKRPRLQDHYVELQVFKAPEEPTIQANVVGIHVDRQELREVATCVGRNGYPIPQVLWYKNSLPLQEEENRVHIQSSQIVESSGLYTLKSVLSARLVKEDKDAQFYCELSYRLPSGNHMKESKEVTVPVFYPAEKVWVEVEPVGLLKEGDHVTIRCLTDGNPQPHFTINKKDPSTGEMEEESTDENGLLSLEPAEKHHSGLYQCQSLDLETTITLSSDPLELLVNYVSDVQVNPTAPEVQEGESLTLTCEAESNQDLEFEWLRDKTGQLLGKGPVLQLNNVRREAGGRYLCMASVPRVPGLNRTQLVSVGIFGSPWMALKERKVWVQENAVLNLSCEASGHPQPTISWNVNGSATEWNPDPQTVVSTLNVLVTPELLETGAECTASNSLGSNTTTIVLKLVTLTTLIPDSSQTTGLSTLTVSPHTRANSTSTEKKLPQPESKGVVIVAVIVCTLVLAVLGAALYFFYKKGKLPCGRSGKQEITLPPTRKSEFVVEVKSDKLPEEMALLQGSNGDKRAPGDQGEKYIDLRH
Method: MCAM-Fc was generated by fusing the extracellular domain of murine MCAM to human IgG and produced in CHO cells using standard techniques. Lou/M rats were immunized with 100 μg of MCAM-Fc protein in CFA (1:1 volume). Rats were boosted two times at two week intervals with MCAM-Fc protein in incomplete Freund's adjuvant (IFA) (1:1 volume). Hybridomas were generated from immunized rats using standard protocols and clones were selected by Clonepix. CHO cells were transfected with the full length murine MCAM gene and selected for stable expression using neomycin and standard techniques. Parental CHO cells (MCAM negative) were fluorescently labeled with carboxyfluorescein succinimidyl ester (CFSE) using standard techniques and mixed at a 1:1 ratio with unlabeled MCAM transfected CHO cells. Hybridoma supernatants were incubated with this mixture of cells for 30 minutes and binding of potential MCAM specific antibodies was detected with a fluorescently labeled anti-rat secondary antibody (Jackson Immuno) by flow cytometry.
(§2) Monoclonal antibodies against mouse MCAM were generated as described in Materials and Methods above. The specific binding between the monoclonal antibody and MCAM was confirmed by assessing the monoclonal antibody's ability to bind to cells transfected with either mouse or human MCAM. For this, untransfected cells were labeled with carboxyfluorescein succinimidyl ester (CFSE) and mixed with unlabeled MCAM transfected cells. Untransfected cells (in blue) could therefore be differentiated.

[6] = molecular target: T6, human MCAM (on transfected cells) (human, UniProt P43121 24-646); test: flow cytometry on human MCAM transfected cells mixed with CFSE-labelled untransfected cells
T6 construct: Cells transfected with human MCAM; also called CD146; MUC18
T6 chain: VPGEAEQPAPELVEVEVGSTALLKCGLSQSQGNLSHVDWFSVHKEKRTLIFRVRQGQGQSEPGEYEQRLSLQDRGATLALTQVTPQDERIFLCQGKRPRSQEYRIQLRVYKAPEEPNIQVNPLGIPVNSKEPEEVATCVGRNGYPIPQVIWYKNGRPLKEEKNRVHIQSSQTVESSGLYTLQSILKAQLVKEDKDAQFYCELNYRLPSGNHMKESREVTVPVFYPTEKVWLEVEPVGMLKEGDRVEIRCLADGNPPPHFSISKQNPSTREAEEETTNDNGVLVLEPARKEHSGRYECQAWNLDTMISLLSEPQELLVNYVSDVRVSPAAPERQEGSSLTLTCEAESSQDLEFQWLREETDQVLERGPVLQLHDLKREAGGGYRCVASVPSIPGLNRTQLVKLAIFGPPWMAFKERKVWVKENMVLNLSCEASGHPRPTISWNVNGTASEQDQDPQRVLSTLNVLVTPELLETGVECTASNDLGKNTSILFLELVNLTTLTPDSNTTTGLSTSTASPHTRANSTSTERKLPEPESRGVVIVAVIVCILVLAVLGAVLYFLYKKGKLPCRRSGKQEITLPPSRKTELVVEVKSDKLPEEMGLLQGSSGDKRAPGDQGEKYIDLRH
Description: as §2

Ig2 domain = molecular target: T7, Ig2 domain (mouse, UniProt Q8R2Y2); test: ForteBio Octet Red, anti-human IgG Fc biosensor loaded with the Ig2 domain hFc protein, dipped into clone 15 or SP2 media
T7 construct: immunoglobulin domain 2 alone; also called Murine MCAM domain 2 (Ig2)
T7 sequence (Fc fusion chain, looked up): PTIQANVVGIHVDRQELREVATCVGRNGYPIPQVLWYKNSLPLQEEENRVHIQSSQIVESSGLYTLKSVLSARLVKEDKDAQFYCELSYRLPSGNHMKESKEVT
Description: as §1
(§3) For FIG. 10A-B, clones 15 and 17 were tested against the following protein samples (all have human IgG Fc tag): […]

[7] = molecular target: T8, murine MCAM-Fc (extracellular domain of murine MCAM fused to human IgG) (mouse, UniProt Q8R2Y2 24-563); test: ForteBio Octet Red, anti-human IgG Fc biosensor loaded with mouse MCAMhFc (5 ug/ml), dipped into clone 15 (5 ug/ml) or SP2 media
T8 construct: extracellular domain; Produced in CHO cells; also called mouse MCAM-Fc protein; full length mouse MCAMhFc protein; not shown: human IgG (Fc) part
T8 sequence (looked up): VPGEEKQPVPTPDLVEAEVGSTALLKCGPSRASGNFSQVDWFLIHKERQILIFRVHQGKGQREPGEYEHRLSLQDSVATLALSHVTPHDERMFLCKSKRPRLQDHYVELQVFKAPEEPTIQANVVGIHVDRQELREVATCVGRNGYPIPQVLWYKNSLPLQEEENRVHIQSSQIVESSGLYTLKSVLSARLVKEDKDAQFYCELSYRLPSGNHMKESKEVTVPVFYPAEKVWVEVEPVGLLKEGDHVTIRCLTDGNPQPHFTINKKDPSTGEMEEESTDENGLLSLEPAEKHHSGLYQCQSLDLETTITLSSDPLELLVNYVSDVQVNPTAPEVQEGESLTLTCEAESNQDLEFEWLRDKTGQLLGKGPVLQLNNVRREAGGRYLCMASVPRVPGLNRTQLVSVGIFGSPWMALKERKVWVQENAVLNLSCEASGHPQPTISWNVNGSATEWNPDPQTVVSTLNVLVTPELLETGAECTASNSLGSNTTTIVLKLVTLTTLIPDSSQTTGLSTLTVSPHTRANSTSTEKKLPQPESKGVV
Description: as §1, §3

- binding result [1]: no binding (tested: 5-175 nM)
- binding result [2]: no binding (tested: 5-175 nM)
B1: MCAM Fc domain 1 alone (Example 9) (Fc fusion)
chain: PRVAGVPGEAEQPAPELVEVEVGSTALLKCGLSQSQGNLSHVDWFSVHKEKRTLIFRVRQGQGQSEPGEYEQRLSLQDRGATLALTQVTPQDERIFLCQGKRPRSQEYRIQ
notes: not shown: Fc tag; not described

- binding result [3]: no binding (tested: 5 ug/ml)
- binding result [4]: binds
- binding result [5]: binds
- binding result [6]: no binding
- binding result (Ig2 domain): no binding (tested: 5 ug/ml)
- binding result [7]: binds
B2: clone 15 monoclonal antibody (rat anti-MCAM) (antibody, V domains shown)
VH: EVRLVESGGGLVQPGKSMKLSCVASGFKFSNYYMSWVRQAPAKGLEWVASISDGGGDTFCRDLVKGRFTISRDNAKSTLYLQMDSLRPEDTATYYCARRGAAMGGVMDAWGQGTSVTVSS
VL: DIVMTQSPSSLAVSAGETVSIHCKSSQSLLYSGTQKNYLAWFQQKPGQSPKLLIFWASTRQSGVPDRFIGRGSGTDFTLTISGVQAEDLAIYYCQQYYDTLTDTFGAGTKLELKR
notes: Rat monoclonal from a hybridoma; also called anti-MCAM antibody (clone 15)
